Results: patent US20240425603A1 (Janssen / Centocor, published 2024)

Biological target: T1, murine VEGFR1, over-expressed on cells (mouse, UniProt P35969 23-1333)
T1 construct: whole, on cells; also called mouse VEGFR1
T1 sequence (looked up): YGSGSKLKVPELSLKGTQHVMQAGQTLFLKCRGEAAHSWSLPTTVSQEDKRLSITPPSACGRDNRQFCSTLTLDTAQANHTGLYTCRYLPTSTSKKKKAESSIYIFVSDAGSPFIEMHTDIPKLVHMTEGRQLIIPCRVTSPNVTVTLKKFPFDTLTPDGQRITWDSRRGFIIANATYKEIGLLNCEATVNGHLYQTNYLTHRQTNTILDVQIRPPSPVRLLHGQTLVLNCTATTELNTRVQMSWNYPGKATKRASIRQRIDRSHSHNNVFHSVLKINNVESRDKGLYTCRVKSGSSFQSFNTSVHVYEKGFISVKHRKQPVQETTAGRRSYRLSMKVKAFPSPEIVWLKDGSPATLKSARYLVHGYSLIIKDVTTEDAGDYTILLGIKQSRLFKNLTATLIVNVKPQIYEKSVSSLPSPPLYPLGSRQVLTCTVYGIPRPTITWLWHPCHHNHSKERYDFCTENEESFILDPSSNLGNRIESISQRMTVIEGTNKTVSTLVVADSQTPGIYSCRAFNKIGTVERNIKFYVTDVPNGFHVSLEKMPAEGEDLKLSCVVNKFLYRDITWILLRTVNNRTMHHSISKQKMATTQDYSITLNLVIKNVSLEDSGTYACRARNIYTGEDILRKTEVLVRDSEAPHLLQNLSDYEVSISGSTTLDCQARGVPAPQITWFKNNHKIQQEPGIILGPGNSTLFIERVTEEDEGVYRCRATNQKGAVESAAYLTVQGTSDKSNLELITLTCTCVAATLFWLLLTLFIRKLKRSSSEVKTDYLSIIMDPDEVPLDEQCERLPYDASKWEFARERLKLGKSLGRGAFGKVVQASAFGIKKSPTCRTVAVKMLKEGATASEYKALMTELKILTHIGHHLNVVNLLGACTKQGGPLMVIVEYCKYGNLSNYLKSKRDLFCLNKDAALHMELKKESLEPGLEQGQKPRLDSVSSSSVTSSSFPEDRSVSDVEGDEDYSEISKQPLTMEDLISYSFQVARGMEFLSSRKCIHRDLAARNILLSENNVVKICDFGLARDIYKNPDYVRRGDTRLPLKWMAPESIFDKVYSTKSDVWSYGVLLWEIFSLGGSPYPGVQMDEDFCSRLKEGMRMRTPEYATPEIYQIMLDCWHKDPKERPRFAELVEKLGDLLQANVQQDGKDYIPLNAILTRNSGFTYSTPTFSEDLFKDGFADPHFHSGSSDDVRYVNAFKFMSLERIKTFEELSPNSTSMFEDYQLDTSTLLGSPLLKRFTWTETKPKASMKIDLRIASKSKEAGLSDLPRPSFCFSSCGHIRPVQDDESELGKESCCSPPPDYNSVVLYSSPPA
Test: FACS cell binding (MFI) on HEK cells over-expressing murine VEGFR1; expanded clone supernatant per paragraph 492, concentration not given
Summary of the method: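 Chicken-derived antibody clones were expressed as scFv-Fc (human IgG1) by transient transfection and expanded to 6-well plates (2 mL). They were tested as culture supernatants. Binding was measured by flow cytometry on cells engineered to over-express the receptor: HEK cells for mouse VEGFR1 and human VEGFR2, and K562 cells for human VEGFR3. The read-out is mean fluorescence intensity.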

B1: VGFB71 (antibody, human IgG1, lambda, L234A L235A, V domains shown)
VH: EVQLLESGGGLVQPGGSLRLSCEASGFIFRDYNMNWVRQAPGKGLEWVSIITNDGSSTAYSDSVKGRFTISRDNSKNSLYLQMNSLRAEDTAIYYCVKVYYGMDDWGQGTTVTVSS
VL: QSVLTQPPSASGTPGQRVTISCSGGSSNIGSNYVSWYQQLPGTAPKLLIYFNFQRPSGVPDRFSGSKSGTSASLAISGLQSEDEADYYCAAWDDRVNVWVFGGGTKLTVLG
notes: human IgG1 (L234A/L235A/D265S)
binding result: binds
